Results on 167 variants are retold here after the RNAGym collection of RNA variant scans (doi:10.7554/elife.90254).

The labels stand for the following.
B1: OR4K15 (parent)
chain: GUUAACGGUCAUAGGCCAUGGAAACUAGGAGCACCAUUUCGCUGCCAGUGAAGAAAUGAACAAAGAAAAUCUGGGCCAGGCAGGCAUCAAAAGAAAUAGUCUUGCGCUCAACCAGAAAGUCUGUAAUCAUUUUAAGGGUA

The variants in this data set derive from B1. Kind of data set: self-cleavage, relative activity (ratio to wild type); higher = more cleavage; in vitro, sequencing; the parent is a self-cleaving ribozyme.
As for G31C U108C, the self-cleavage was 0.03.

Take G31C U122A: the self-cleavage amounted to 1.89.

Take A33G A52G: the self-cleavage amounted to 0.91.

With A33G A52U, the self-cleavage stood at 1.42.

Regarding A33C C46U, the self-cleavage was found to be 1.3.

Consider A33U A125G, for which the self-cleavage was 0.99.

As for A33U C105U, the self-cleavage came out at 0.49.

As to A33G A116C, the self-cleavage is 0.14.

As for A33G A116U, the self-cleavage was found to be 0.21.

With A33G A116G, the self-cleavage turned out to be 0.24.

As for C32U A52G, the self-cleavage was 1.73.

C34A A116U: the self-cleavage came out at 0.51.

For the variant A33U A60U, the self-cleavage was 1.68.

Consider A33G A64G, for which the self-cleavage turned out to be 0.5.

A33C U108C: the self-cleavage is 0.01.

Regarding A33C A64C, the self-cleavage is 1.61.

Consider C34U A92G, for which the self-cleavage stood at 1.04.

Take A33G A134G: the self-cleavage is 0.52.

Take G31A C32U: the self-cleavage was 1.42.

Consider G31A U39C, for which the self-cleavage was determined as 1.68.

Turning to C32U A117U, the self-cleavage came to 0.3.

In the case of A30U A95G, the self-cleavage was found to be 0.89.

As for G31A U122C, the self-cleavage amounted to 2.04.

For A33U C85A, the self-cleavage worked out at 2.05.

On to A30G U37A, for which the self-cleavage was determined as 1.7.

As to A30G U37C, the self-cleavage was 0.98.

A33U U37C: the self-cleavage came to 1.51.

Turning to A33C A96G, the self-cleavage is 2.84.

On to A33C, for which the self-cleavage was 1.35.

A33G: the self-cleavage is 0.82.

As for A33U, the self-cleavage turned out to be 1.4.

As to A33G C77U, the self-cleavage came to 1.59.

For G31A A60C, the self-cleavage stood at 1.95.

Consider A33U A59C, for which the self-cleavage is 2.23.

For A33G A114G, the self-cleavage was 0.11.

For A33G A114C, the self-cleavage turned out to be 0.05.

In the case of A33G A114U, the self-cleavage came out at 0.02.

In the case of C35U G136U, the self-cleavage was 1.19.

As to A33C A51U, the self-cleavage turned out to be 2.27.

On to A33C A51G, for which the self-cleavage is 1.64.

Turning to A33U U39C, the self-cleavage stood at 1.56.

As to A33U A55U, the self-cleavage is 2.31.

Consider A30U A66G, for which the self-cleavage turned out to be 1.68.

With A30U A66U, the self-cleavage turned out to be 0.65.

Turning to C34A G73A, the self-cleavage worked out at 0.17.

In the case of A30G U103C, the self-cleavage was 1.09.

C35U A98U: the self-cleavage came to 1.52.

On to C32U U39C, for which the self-cleavage came out at 1.47.

For C34A A59G, the self-cleavage was found to be 1.11.

For the variant A33G C113A, the self-cleavage was 0.01.

On to C32U U103C, for which the self-cleavage came to 0.91.

Consider A30U A78U, for which the self-cleavage is 0.2.

On to C34U U127C, for which the self-cleavage came out at 1.39.

For A30U A47G, the self-cleavage amounted to 0.97.

Regarding A33G U97A, the self-cleavage is 1.18.

Regarding G31C A56G, the self-cleavage was 1.63.

Regarding A33C U87A, the self-cleavage amounted to 1.18.

For G31A G73U, the self-cleavage came to 0.3.

Consider A33U U72G, for which the self-cleavage turned out to be 0.51.

For A30G U102A, the self-cleavage came to 0.78.

Take A30G U102C: the self-cleavage was found to be 1.21.

Regarding A33U C112U, the self-cleavage amounted to 0.01.

Take A33G U127A: the self-cleavage stood at 1.19.

For the variant A33G U127C, the self-cleavage worked out at 0.23.

Consider G31A A51G, for which the self-cleavage worked out at 1.64.

In the case of A30G U49C, the self-cleavage came out at 1.07.

For the variant C34A A92C, the self-cleavage was found to be 0.26.

Take A30U A82U: the self-cleavage was 0.23.

In the case of C34U U72C, the self-cleavage was 0.17.

In the case of A30U U87C, the self-cleavage turned out to be 0.96.

In the case of A33G A66U, the self-cleavage was 0.35.

For the variant C35U A135G, the self-cleavage stood at 1.57.

Regarding A33G U122C, the self-cleavage was 0.64.

For C32U A47U, the self-cleavage turned out to be 0.9.

In the case of A33U U70A, the self-cleavage was found to be 0.33.

Consider A30U A68G, for which the self-cleavage was found to be 1.62.

For C32U A36U, the self-cleavage turned out to be 1.76.

Turning to A33U A95U, the self-cleavage was determined as 2.

On to A33U U120C, for which the self-cleavage was found to be 1.32.

Regarding A33G U70A, the self-cleavage was 0.5.

For the variant G31A U130C, the self-cleavage was 1.91.

In the case of A30G G74C, the self-cleavage came out at 0.34.

On to A33U A117G, for which the self-cleavage came out at 1.9.

For C32U U130C, the self-cleavage was found to be 1.26.

In the case of A30G U108C, the self-cleavage turned out to be 0.02.

On to C34U A118G, for which the self-cleavage was found to be 1.49.

For A33G A86G, the self-cleavage amounted to 0.7.

C34U U49C: the self-cleavage is 1.17.

For C35U A60G, the self-cleavage came to 0.76.

With A33U C101A, the self-cleavage was 0.35.

With A30G G104A, the self-cleavage amounted to 0.08.

Take A33C A118C: the self-cleavage was determined as 0.99.

As for A30U A36G, the self-cleavage is 1.71.

Regarding G31U U133C, the self-cleavage worked out at 2.47.

Consider G31A U70A, for which the self-cleavage stood at 1.73.

As to A33G U38C, the self-cleavage came to 1.41.

Consider C35U A52G, for which the self-cleavage was 1.03.

For A33C A135G, the self-cleavage stood at 1.64.

For A33G C42G, the self-cleavage turned out to be 1.02.

Regarding A30U G79U, the self-cleavage stood at 0.09.

Turning to A30U C105U, the self-cleavage worked out at 0.4.

As for A33U G74C, the self-cleavage turned out to be 0.05.

As for A33G A110G, the self-cleavage is 0.15.

Take C34A A55G: the self-cleavage stood at 1.25.

C34U U43A: the self-cleavage amounted to 0.99.

For A33U A110G, the self-cleavage is 0.08.

A33U A110U: the self-cleavage is 1.71.

Consider A33G A36G, for which the self-cleavage came to 1.15.

For A33G A36U, the self-cleavage amounted to 1.33.

A33U A64G: the self-cleavage is 1.31.

As for A33U A94U, the self-cleavage is 2.41.

As for A33G U124C, the self-cleavage is 0.63.

For the variant A30G U122C, the self-cleavage turned out to be 0.84.

Consider A33U U127A, for which the self-cleavage worked out at 2.74.

With A33G U49C, the self-cleavage is 0.5.

As for A33G U49G, the self-cleavage was found to be 0.61.

Regarding A30U A111G, the self-cleavage is 0.02.

C35A G99U: the self-cleavage was 0.79.

Regarding G31C A125G, the self-cleavage came out at 0.93.

With C32G A95G, the self-cleavage is 1.87.

Take A30U A96G: the self-cleavage was 0.89.

Take A33G A126C: the self-cleavage came to 0.86.

On to A33G A126U, for which the self-cleavage was 0.86.

Consider C34U A126G, for which the self-cleavage worked out at 1.12.

Consider A33G A51U, for which the self-cleavage is 0.82.

In the case of A33G A51G, the self-cleavage was determined as 0.75.

As for A33G A51C, the self-cleavage turned out to be 0.52.

Take C32U A64G: the self-cleavage stood at 1.66.

Turning to A33U U38C, the self-cleavage was 2.

On to G31U A90G, for which the self-cleavage amounted to 1.32.

Turning to C32A G73U, the self-cleavage amounted to 0.21.

A33G A62G: the self-cleavage turned out to be 1.11.

In the case of A33G A62U, the self-cleavage came to 0.76.

On to G31A A47U, for which the self-cleavage is 0.83.

Regarding G31A A47G, the self-cleavage was 1.

In the case of A30U A134G, the self-cleavage amounted to 1.06.

A30G U124C: the self-cleavage was found to be 0.74.

For the variant A30G U124A, the self-cleavage is 0.78.

Regarding C35A C112U, the self-cleavage worked out at 0.03.

Regarding A30U A90G, the self-cleavage was found to be 1.31.

Turning to A30U A126G, the self-cleavage is 1.03.

On to A33C A66G, for which the self-cleavage was determined as 1.88.

With C32U U120C, the self-cleavage was determined as 1.57.

On to C35A A51U, for which the self-cleavage was determined as 1.93.

Turning to C32U A96G, the self-cleavage came out at 0.99.

For A33U U57C, the self-cleavage was found to be 0.68.

For the variant A33G G80A, the self-cleavage stood at 0.12.

For G31A U108C, the self-cleavage was 0.03.

As for C32A A47G, the self-cleavage came out at 0.49.

For C32A A47U, the self-cleavage amounted to 1.05.

With A30U U103G, the self-cleavage was determined as 0.03.

For the variant A30U U103A, the self-cleavage amounted to 0.53.

Take A33U A91G: the self-cleavage amounted to 0.6.

Regarding A33U A66G, the self-cleavage amounted to 1.91.

With A33G A118G, the self-cleavage stood at 0.49.

As to C34U U122C, the self-cleavage was determined as 2.62.

Take A30U A92G: the self-cleavage was 0.91.

As for A30G U97C, the self-cleavage came out at 1.23.

Consider C35A A91G, for which the self-cleavage turned out to be 1.42.

Take A30U U132C: the self-cleavage turned out to be 1.33.

Consider A33G A56G, for which the self-cleavage was 0.77.

For the variant A30G G119A, the self-cleavage was found to be 2.01.

Turning to G31U U120C, the self-cleavage came to 1.21.

In the case of A30U U97C, the self-cleavage worked out at 0.83.

On to A33U U102C, for which the self-cleavage is 2.32.

C32A U39C: the self-cleavage worked out at 1.42.

As to G31U A63G, the self-cleavage worked out at 2.02.
